Data published in PMC10082759, “Shieldin complex assembly kinetics and DNA binding by SHLD3” (Communications Biology, 2022).

How the values were obtained:
[1] = biological target: REV7 (Homo sapiens) (UniProt Q9UI95); conditions: cited from earlier work
[2] = biological target: T1, SHLD3;SHLD2 1-95;REV7 R124A (human;human;human, UniProt Q6ZNX1;Q86V20-2;Q9UI95 1-250;1-95;1-211, ||R124A); test: fluorescence anisotropy; 20 mM Na-HEPES pH 7.5, 5% glycerol, 100 mM NaCl, 0.5 mM TCEP; 10 nM DNA, 30 min, room temperature; conditions: protein: recombinant;recombinant;recombinant, tags: tags cleaved (PreScission);GST tag, cleaved (PreScission);tags cleaved (PreScission), copies: 1;1;2
[3] = biological target: T2, SHLD3 CTD (human, UniProt Q6ZNX1 140-250); test: fluorescence anisotropy; Kd similar to the Shieldin complex; 20 mM Na-HEPES pH 7.5, 5% glycerol, 100 mM NaCl, 0.5 mM TCEP; 10 nM DNA, 30 min, room temperature; conditions: protein: recombinant, tags: MBP or GST tag, cleaved (PreScission)
T2 sequence: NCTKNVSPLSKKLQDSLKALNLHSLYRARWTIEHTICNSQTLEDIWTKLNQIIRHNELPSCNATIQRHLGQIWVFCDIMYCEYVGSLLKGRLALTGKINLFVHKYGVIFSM

[4] = biological target: T3, preformed REV7^ΔN-SHLD3 (human, UniProt Q9UI95 15-211; Q6ZNX1 1-62); test: SEC; 5 µM preformed REV7^ΔN-SHLD3 with 10 µM MBP-SHLD2^1–60 and MBP-REV7^core, 30 min on ice, Superdex-200 3.2/300 in buffer B; conditions: both partners purified
T3 construct: REV7 (MAD2L2), human, without the N-terminal 14 residues; as m8; SHLD3, human, residues 1-62; as m16; source: E. coli LOBSTR, purified components, complex formed beforehand; not shown: hexahistidine-MBP or GST, N-terminal, cleaved; GST, N-terminal, kept
T3 sequence (Q9UI95 15-211, stated change not applied, one chain of several): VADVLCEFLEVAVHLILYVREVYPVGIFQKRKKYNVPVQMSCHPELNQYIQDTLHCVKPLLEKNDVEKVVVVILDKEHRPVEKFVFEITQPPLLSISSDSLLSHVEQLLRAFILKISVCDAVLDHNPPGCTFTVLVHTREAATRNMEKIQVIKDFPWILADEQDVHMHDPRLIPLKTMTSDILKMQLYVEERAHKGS

[5] = biological target: T4, pre-formed GST-SHLD3^1–62-REV7 (human, UniProt Q6ZNX1 1-62; Q9UI95 1-211); test: pull-down; MBP-SHLD2^1–60 as bait, five-minute incubation at 4 °C with REV7 and GST-SHLD3^1–62 or with pre-formed GST-SHLD3^1–62-REV7 and additional REV7; conditions: both partners purified
T4 construct: SHLD3, human, residues 1-62; as m16; REV7 (MAD2L2), human; as m1; also called GST-SHLD3^1–63-REV7 (methods); pre-formed REV7-SHLD3; source: E. coli LOBSTR, purified components, complex formed beforehand in the absence of SHLD2; not shown: GST, N-terminal, kept; hexahistidine-MBP or GST, N-terminal, cleaved
T4 sequence (Q9UI95 whole entry, the tested form may be a part, one chain of several): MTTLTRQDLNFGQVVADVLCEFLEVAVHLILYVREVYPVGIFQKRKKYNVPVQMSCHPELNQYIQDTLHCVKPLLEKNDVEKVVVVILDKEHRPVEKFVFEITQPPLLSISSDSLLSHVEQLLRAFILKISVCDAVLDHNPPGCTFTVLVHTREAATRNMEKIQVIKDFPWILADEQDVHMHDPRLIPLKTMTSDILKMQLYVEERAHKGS

[6] = biological target: SHLD3 1-83;SHLD2 1-60;REV7 (human;human;human, UniProt Q6ZNX1;Q86V20-2;Q9UI95 1-83;1-60;1-211, del84-250||); test: fluorescence anisotropy; 20 mM Na-HEPES pH 7.5, 5% glycerol, 100 mM NaCl, 0.5 mM TCEP; 10 nM DNA, 30 min, room temperature; conditions: protein: recombinant;recombinant;recombinant; tags: ;;; copies: 1;1;2; label: 5(6)-FAM
Chain of SHLD3 1-83;SHLD2 1-60;REV7 (Q9UI95 whole entry, stated change not applied, one chain of several): as the sequence (Q9UI95 whole entry, the tested form may be a part, one chain of several) above

[7] = biological target: T5, REV7^WT (human, UniProt Q9UI95 1-211); test: SPR; SHLD3^1–62 or REV3^1871–2014 immobilised on SCR HC30M chip by EDC-NHS; REV7 injected in two-fold dilutions; buffer B with 0.05% Tween 20; conditions: both partners purified
T5 construct: REV7 (MAD2L2), human; The methods say in general that the MBP or GST tag was cleaved with PreScission protease; here the protein is labelled without a tag; also called MAD2L2; wild-type REV7; source: E. coli LOBSTR, purified (metal chelating column, tag cleavage, SEC); not shown: hexahistidine-MBP or GST, N-terminal, cleaved
T5 sequence (Q9UI95 whole entry): as the sequence (Q9UI95 whole entry, the tested form may be a part, one chain of several) above

[8] = biological target: REV7^R124A (human, UniProt Q9UI95 1-211, R124A); test: SPR
[9] = biological target: T6, REV7^R124A (human, UniProt Q9UI95 1-211, R124A); test: SPR; SHLD3^1–62 or REV3^1871–2014 immobilised on SCR HC30M chip by EDC-NHS; REV7 injected in two-fold dilutions; buffer B with 0.05% Tween 20; conditions: both partners purified
T6 construct: REV7 (MAD2L2), human; also called dimerization mutant; source: E. coli LOBSTR, purified (metal chelating column, tag cleavage, SEC); not shown: hexahistidine-MBP or GST, N-terminal, cleaved

[10] = biological target: T1, SHLD3;SHLD2 1-95;REV7 R124A; test: analytical size-exclusion chromatography co-migration; excess DNA; 20 mM Na-HEPES pH 7.5, 5% glycerol, 100 mM NaCl, 0.5 mM TCEP; 10 nM DNA, 30 min, room temperature; conditions: protein: recombinant;recombinant;recombinant, tags: tags cleaved (PreScission);GST tag, copies: 1;1;2, label: 5(6)-FAM
[11] = label: 5(6)-FAM on strand 1, blunt

In the case of REV7 (from UniProt Q9UI95), the Kd [1] is given as 2000 nM.

With TTAGGGTTAGGG (ssDNA) [telomeric ssDNA] the Kd ([2]; label: 5(6)-FAM) was 207 nM and the binding result ([3]; label: 5(6)-FAM) was “binds”.

B1: dsTelo (dsDNA)
DNA 1: TTAGGGTTAGGG
DNA 2: CCCTAACCCTAA
For B1, the Kd [2, 11] was 180 nM and the binding result [3, 11] was “binds”.

B2: MBP-SHLD2^1–60 (domain or fragment, human, UniProt Q86V20-2 1-60, looked up)
chain: MSGGSQVHIFWGAPIAPLKITVSEDTASLMSVADPWKKIQLLYSQHSLYLKDEKQHKNLE
notes: SHLD2, human, N-terminal residues 1-60; source: E. coli LOBSTR, purified; not shown: hexahistidine-MBP, N-terminal, kept
B2: binds [4]; binds [5].

With AGTGCCAGTGCC (ssDNA) [non-telomeric ssDNA] the binding result [6] was “no binding”, the Kd ([2]; label: 5(6)-FAM) was 137 nM and the binding result ([3]; label: 5(6)-FAM) was “binds”.

B3: REV3^1871–2014 (domain or fragment, human, UniProt O60673 1871-2014, looked up)
chain: TPRTANILKPLMSPPSREEIMATLLDHDLSETIYQEPFCSNPSDVPEKPREIGGRLLMVETRLANDLAEFEGDFSLEGLRLWKTAFSAMTQNPRPGSPLRSGQGVVNKGSSNSPKMVEDKKIVIMPCKCAPSRQLVQVWLQAKE
notes: REV3, human, residues 1871-2014 (holds RBM1 1875-1896 and RBM2 1991-2012); Named without a tag; the methods say in general that tags were cleaved; source: E. coli LOBSTR, purified; not shown: hexahistidine-MBP or GST, N-terminal, cleaved
B3: binds [7].

B4: SHLD3^1–62 (domain or fragment, human, UniProt Q6ZNX1 1-62, looked up)
chain: MTTEVILHYRPCESDPTQLPKIAEKAIQDFPTRPLSRFIPWFPYDGSKLPLRPKRSPPVISE
notes: the methods say in general that tags were cleaved; also called SHLD3^RBM; source: E. coli LOBSTR, purified; not shown: hexahistidine-MBP or GST, N-terminal, cleaved
For B4, the Kd [8] was about 67 nM, the binding result [9] was “binds” and the Kd [7] was about 50 nM.

B5: non-telomeric dsDNA (dsDNA)
DNA 1: AGTGCCAGTGCC
DNA 2: GGCACTGGCACT
For B5, the Kd [2, 11] was 166 nM and the binding result [3, 11] was “binds”.

AAGGGGAGCGGGGGAGGATAATAGGAAGGGGAGCGGGGGAGGATAATAGG (ssDNA) [50 nt ssDNA]: binds [10].
